T1: Recombinant CYP26A1 (UniProt O43174)
T1 sequence: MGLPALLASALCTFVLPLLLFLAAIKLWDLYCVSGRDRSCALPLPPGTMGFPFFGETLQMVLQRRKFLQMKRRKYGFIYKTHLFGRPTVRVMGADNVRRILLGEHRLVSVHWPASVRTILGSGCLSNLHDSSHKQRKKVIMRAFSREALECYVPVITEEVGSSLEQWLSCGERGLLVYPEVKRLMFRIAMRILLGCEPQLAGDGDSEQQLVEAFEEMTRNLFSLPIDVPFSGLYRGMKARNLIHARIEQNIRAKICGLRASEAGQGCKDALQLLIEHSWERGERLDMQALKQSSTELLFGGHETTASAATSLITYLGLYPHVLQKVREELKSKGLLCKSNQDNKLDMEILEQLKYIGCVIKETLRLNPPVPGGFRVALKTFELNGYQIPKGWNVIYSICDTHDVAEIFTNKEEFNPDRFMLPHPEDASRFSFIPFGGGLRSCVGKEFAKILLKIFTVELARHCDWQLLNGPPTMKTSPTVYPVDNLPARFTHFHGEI

T2: CYP26A1 (Homo sapiens, UniProt O43174)
T2 chain: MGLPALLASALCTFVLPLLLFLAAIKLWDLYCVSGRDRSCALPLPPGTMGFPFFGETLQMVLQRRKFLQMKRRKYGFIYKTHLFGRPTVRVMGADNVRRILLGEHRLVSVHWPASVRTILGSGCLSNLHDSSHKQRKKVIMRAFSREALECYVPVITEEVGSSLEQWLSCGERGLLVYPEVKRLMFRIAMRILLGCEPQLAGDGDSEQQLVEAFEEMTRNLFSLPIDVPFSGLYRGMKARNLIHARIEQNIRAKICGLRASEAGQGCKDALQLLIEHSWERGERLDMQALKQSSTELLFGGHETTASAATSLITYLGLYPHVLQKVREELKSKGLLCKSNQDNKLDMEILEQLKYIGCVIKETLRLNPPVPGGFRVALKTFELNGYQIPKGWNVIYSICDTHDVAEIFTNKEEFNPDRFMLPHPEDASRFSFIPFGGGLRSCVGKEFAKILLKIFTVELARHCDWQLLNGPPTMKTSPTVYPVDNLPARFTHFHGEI


What was measured:
Recombinant CYP26A1 = target: T1, Recombinant CYP26A1
CYP26A1 = target: T2, CYP26A1; experiment: enzyme inhibition kinetics

Sequence of Cellular retinoic acid binding protein 1 (CRABP1) (P29762 whole entry): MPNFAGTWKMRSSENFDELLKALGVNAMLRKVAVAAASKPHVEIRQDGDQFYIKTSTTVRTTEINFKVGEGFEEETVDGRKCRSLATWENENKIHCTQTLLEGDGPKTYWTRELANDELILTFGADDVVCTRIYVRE

| αKm (affinity of holo-CRABP1, with atRA bound, for CYP26A1), from a global fit of the protein-protein interaction model (Equation 3) to 4-OH-atRA formation velocities (Recombinant CYP26A1) | αKm (affinity of holo-CRABP2, with atRA bound, for CYP26A1), from a global fit of the protein-protein interaction model (Equation 3) to 4-OH-atRA formation velocities (Recombinant CYP26A1) | Ki (CYP26A1) | Molecule |
| --- | --- | --- | --- |
| 0.99 nM | – | – | Cellular retinoic acid binding protein 1 (CRABP1) (from UniProt P29762 1-137) (natural protein) |
| – | 0.75 nM | 530 pM | CRABP2 (protein) MPNFSGNWKIIRSENFEELLKVLGVNVMLRKIAVAAASKPAVEIKQEGDTFYIKTSTTVRTTEINFKVGEEFEEQTVDGRPCKSLVKWESENKMVCEQKLLKGEGPKTSWTRELTNDGELILTMTADDVVCTRVYVRE |
